Earlier results on one substance are cited in publication PMC8223436.

For orientation: Kd means the constant that tells how readily two partners part at equilibrium.

In the data set the target is HER2 domain IV (Homo sapiens) (UniProt P04626).

Turning to Trastuzumab, the Kd is 0.56 nM.
